{"source": "paper PMC6797443", "about": "“Experimental characterization of two archaeal inosine 5'-monophosphate cyclohydrolases” (PLoS ONE, 2019)", "key": {"[1]": {"system": "NC(=O)c1ncn([C@@H]2O[C@H](COP(=O)(O)O)[C@@H](O)[C@H]2O)c1NC=O", "assay": "purified protein", "type": "biochemical, Archaeoglobus fulgidus", "details": "0.050 M Tris, pH 7.3, 50°C, MBP fusion"}, "[2]": {"system": "NC(=O)c1ncn([C@@H]2O[C@H](COP(=O)(O)O)[C@@H](O)[C@H]2O)c1NC=O", "assay": "purified protein", "type": "biochemical, Thermococcus kodakarensis", "details": "0.050 M Tris, pH 7.3, 50°C, MBP fusion"}}}
{"substance": "AF1811 (Archaeoglobus fulgidus PurH2) (Archaeoglobus fulgidus DSM 4304)", "values": [{"measurement": "Km", "setting": "[1]", "result": "7.8 ± 1.8", "unit": "µM"}, {"measurement": "kcat", "setting": "[1]", "result": "1.32 ± 0.14", "unit": "s⁻¹"}]}
{"substance": "TK0430 (Thermococcus kodakarensis PurO) (Thermococcus kodakarensis KOD1)", "values": [{"measurement": "Km", "setting": "[2]", "result": "1.56 ± 0.39", "unit": "µM"}, {"measurement": "kcat", "setting": "[2]", "result": "0.48 ± 0.04", "unit": "s⁻¹"}]}
